Laboratory results as given in the nanobody polyreactivity screen of Harvey et al. (2022).

Test: yeast display, Sf9 membrane polyspecificity reagent, FACS + sequencing; frameworks hold sequencing errors
Summary of the method: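 In a synthetic yeast display library (Saccharomyces cerevisiae BJ5465), nanobody expression was induced with galactose for 36–48 hours. FACS gates were set low and high (top ~1%) using anti-HA fluorescence for expression and streptavidin fluorescence for binding of the Sf9 membrane reagent. Each polyreactivity label is drawn from the gate of origin.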

Row | Sequence | polyreactivity (PSR sort gate)
1 | EEQLVESGGGLVQPGGSLRLSCAASVYIYSRYRMGWYRQAPGKGREFVAAISGGSSPNYADCVKGRFTISRDNSKNTVYLQMNSLRAEDTAVYYCAAYKIDSDPRVYWGQGTQVTVSS | low polyreactivity
2 | QVQLVESGGGLVQAGGSLRLSCAASGFIFRHYAMGWYRPAPGKERELVAAITSGGTTYYADSVKGRFTISRDNAKNTVYLQMNSLKPEDTAVYYCNTVYYRPGQDVDYWGQGTQVTVSS | high polyreactivity
3 | QVQLVETGGGLVQAGGSLRLSCAASGSIAFNAMGWYTQAPGKERELVAAITWRVGSTYYADSVKGRFTISRDNAMNTVDLQMHSLKTEDTAVYYCAARRTAGAYYGYNYWGQGTQVTVSS | high polyreactivity
4 | QVQLVESGGGLVQAGGSLRLSCAASGRTFKNYAMGSYRQAPGKERELVAAISWRSGSTNYADSVKGRCTISRDNAKNTVYLQMNSLKPEDTAVYYCARKRRISGWSQFTSYADFDYWGQGSQVTVSS | low polyreactivity
5 | QVQLVESGGGLVQAGGSLRLSCAASGSTFGANAMGWYRQAPGKEREFVAAISGSGTTTYYADSVKGRFTISRDNAKNTVYLQINSLKPEDTAVYYCAKTRKAHWLEYWGQGTQVTVSS | low polyreactivity
6 | QVQLVESGGGLVQAGGSLRLSCAASGNTFLRNTMGWYRQAPGKERELVAAISWGGGTTYYADSVKGRFTISRDNAKNTVYLQINSLKPEDSAVYYCNARYYSRRGNSWGQGTQVTVSS | high polyreactivity
7 | QVQLVESGGGLVQAGGSLRLSCAASGSTFYIYAMGWYRQAPGKERELVARISGSRGSTYYADSVKGRFTISRDNAKNTVYLQMNSLKPEDTAVYYCAADDIYKYYQYYALPSYRYDYWGQGTQVTVSS | low polyreactivity
8 | QVQLVESGVGLVQAGGSHRFICAASGIIFYSYAMGWYRQAPGKEREFVAAITNSDGSTYYADTVKRRFTISRDNAKNTVYLQMNSLKPVDTAVYMYYWGQGTQVTVSS | low polyreactivity
9 | QVQLVESGGGLVQAGGSLRLSCAASGGIFTGYAMGWYRQAPGKERELVAAISSGGTTYYADSVKGRFTISRDNAKITVHLQMNSLKPEDTAVYYCAAGFYLRAVWMDYWGQGTQVTVSS | high polyreactivity
10 | QVQLVESGGGLVQAGGSLRLSCAASGRTFYFYAMGWYRQAPGKERELVAAITSRVGRTYYADSVKGRFTISRDNAKNTVYLQMNSLKPEDTAVYYCAAEGVYRMGYWGQGTQVTVSS | high polyreactivity
11 | QVQLVDSGGGLVQAGGSLRLSCAASGRTFYGNAMGWYRQAPGKARELVAAINRDGGTYYADSVKGRFTISRDNAKNTVYLQMNSLKPEDTAVYYCNAVKRGIRYGYWGQGTQVTVSS | high polyreactivity
12 | QVQLVESGGGLVQAGGSLRLSCAASGSIFGTYAMGGYRQAPGKERELVAAITGNGGRTYYADSVKGRFTISRDNAKNTVYLQMNSLKPEDTAVYYCAKATSRRGFYYWGQGTQVTVSS | high polyreactivity
13 | QVQLVESGGGLVQAGGSLRLSCAASGSISGYYVMGWYRQAPGKERELVAAITWRGGSTYYADSVKGSFTISRDNAKNTVYLQMNSLKPEDTAVYYCNKVPGRRSTFEYWGQGTQVTVSS | high polyreactivity
14 | QVQLVESGGGLVQAGGSLRLSCAASGFIFYRYAMGWYRQAPGKERELVAAITGGGSTYYADSVKGRFTISRDNAKNNFYLQMNSLKPEDTAVYYCAARKRYWFTPYDYWGQGTQVTVSS | high polyreactivity
15 | QVQLVESGGGLVQAGGSLRLSCAASGSTFGDYDMGWYRQAPGKERELVAAITIGGITTYADSVKGRFTISRDNAKNTVYLQMNSLKPEDTAVYYCAAAERGDWDDYWGQGTQVTVSS | low polyreactivity
16 | QVQLVESGGGLVQAGGSLRLSCAASGIIFSSYAMGWYRQAPGKERELVAAITSGGNTNYADSVKGRFTISRDNAKNTVYLQMNSLKTEDISVYYCNADTSFVWLAWHQYGFGYWGQGTQVTLSS | low polyreactivity
17 | QVQLVESGGGLVQAGGTLRLSCAASGSIFRGNGMGWYRQAPGKERELVAAISRSGGRTYYADSVKGRFTFSRDNAKNTVYLQMNSLKPEDTAVYYCAAVPPYNYRFRVYYWGQGSQVTVSS | high polyreactivity
18 | QVQLVESGGGLVQAGGSLRLSCAASGSTFHFYAMGWYRQAHGKERELVASITSRGGNTHYADSVKGRFTISRDNAKNTVYFQMNSLKPEDTAVYYCAARKGTSWKAHFRFDYWGQGTQVTVSS | low polyreactivity
19 | QVQLVESGGGLVQAGGSLRLSCAASGIIFLRNTMGWNRQAPGKERELVASISRRGGSTYYADSVKGRFTISRDNAKNTVYFQLNSLNPEDTAVYYCAATVRGKRSTYDYWGQGTQVTVSS | high polyreactivity
20 | QVQLVESGGGLVQAGGSLRLSCAASGYTFSLNAMGWYRQAPGKERELVAAIRGGGSTNYADSVKGRFTISRDNAKKTVYLQMNSLKPEDTAVYYCAASSYNGHVYWGQGTQVTVSS | low polyreactivity
21 | QVHLVESWGGLVQAGGSLRLSCAASGRTFWKYAMGWYRQAPWKDRVLVAAITASGARTYYADSVKGRFSISRDNGKNTVYLQMNSLKPEDTSVYYCNAGSVSDRQMDYWGQGTQVTVSS | low polyreactivity
22 | QVQLVESGGGLVQAGGSLRLSCAASGSTFSLYAMGWYRQAPGKERELVAAISKRGDDTYYADSVKGRFTISRDNAKNTVYLQMNSLKPEDTAVYYCAAEYAAYEYRYWWYDYWGQGTQVTVSS | high polyreactivity

Row | Sequence | polyreactivity (PSR sort gate)
23 | QVQLVESGGGLVQAGGSLRLSCAASGRTFKYYAMGWYRQAPGKERELVAAISRSGGSTYADSVKGRFTISRDNAKNTVYLQMNSLKPEDTAVYYCATGWWRQGVASFDYDYWGQGTQVTVSS | high polyreactivity
24 | QVQLVESGGGLVQAGGSLRLTCAASGRTFDYYAMGWYRQAPGKERELVAAIRGSGGSTYYADSVKGRFTISRDNAKNTVYLQMNSLKPEDTAVYYCATDPPYFRTPWEYDYWGQGTQVTVSS | low polyreactivity
25 | QVQLVESGGGLVQAGGSLRLSCAASGNIFSDNAMGWYRQAPGKERELVAAITASTSDTYYADSVKGRFTISRDNAKNSVYLQMNSLKPEDTAVYYCAADSRGFQLFDYWGQGTQVTVSS | low polyreactivity
26 | QVQLVESGGGIVQAGGRLRLSCAASGRIFYYNAMGWYRQAPGQERELVAVISRNGGRTYYADSVKGRFTISRDNAKNTVSFQMNSLKPEDTAVYYCAARSAGDRYDYWGQGTQVTVSS | high polyreactivity
27 | QVQLVESGGGLVQAGGSLPLSCAASGSIFWRNAMGWYRQAPGKEREFVATITWSGDSTYYADSVKGRFTISRDNAKNTVYLQMNSLKPEDTAVYYYAAAYSNWHPGLDYWGQGTPVTVSS | low polyreactivity
28 | QDQHVESGGGLVQAGGSLRLSCADSGIIFYPNAMGWYRQAPGKERELVAAITGSGGSTYYADSVKGRFTISRDNAKYTVYIQMNSLKPEDTAVYYCATRYHRSDPSRDYWGQGTQVTVSS | low polyreactivity
29 | QVQLVDSGGGLVQAGGRLRLSCAASGSTFRLYAMGWYRQAPGKERELVAAISSNGVRTYYADSVKGRFTISRDNAKNTVYLQLNSLKPEDTAVYYCAARVYPAYPRGYDYWGQGTQVTVSS | high polyreactivity
30 | QVQLVESGGGLVQAGGSHRLSCAASGRIIHGYAMGWYRQAPGKERELVARISFSGGRTYYADSVKGRFTISRDNAKNTVYLQKNSLIPEDTAVYYCNVRVWSYYYPGRDSDYWGQGTQVTVSS | high polyreactivity
31 | QVQLVESGGGLVQAGGSLRLSCAASGSTLGRNAMGWYRQAPGKERELVAGIDGSAGSTYYADSVKGRFTISRDNAKNTVYLQMNSLKPEDTAVYYCNADVIDLDYDYWGQGTQVTVSS | low polyreactivity
32 | QVQLVESGGGSLRLSCAASGLTFGGYTMGWIRQAPGKERELVAAISSSDSTNYADSVKGRFTISRDNAKNTVYVQMNSLKPEDTALYSCSADSGQWSRYSSFGDEGDSWGQGTQVTVSS | low polyreactivity
33 | QVQLVESGGGLVQAGGSLGLSCAASGLIFQAYAMGWYRQAPGKERELVAAINWSGDSTYYADSVKGRFTISRDNAKYTVYLQMNSLKPEDTAVYYCAARYRRAKYGYWGQGTQVTVSS | high polyreactivity
34 | QVQLVESAAGLVQAGGSLRLTCAASGLTFTTYAKGWYTQSPRKDRELVAAISRRGSRTYYADSVKGRFTISRDNAKNTVYLQMQSLKPDDTAVYYCNALTGSFKTDSFDYWGQGTQVTVSS | high polyreactivity
35 | QVHLVESGGGLVQAGGSLRLSCAASGRTIDRNTMGWYRQAPVKERELVATITWSVGRTYYADSVKGRFTISRDNGKITVYVQMISMKPEDTGVYFCAAGIYAYKYESWGHGTQVTVSS | high polyreactivity
36 | QVQLVESWGGLVQAGGSLRLSCAASGRIFYKYAMGWYRQAPGKERELVAAISYSGGSTYYADSVKGRFTISRDNAKITVYLQMKSLKQEDTAVDDCNAKPPYGVRSWGDYWGQGTKVTVSS | low polyreactivity
37 | QVQLVESGGGLVQAGGSLRLSCAASGRIFVSYAMGWYRQAPGKERELVAAISNSGSRTYYADSVKGRFTISRDNAKNTVYLQMNSLKPEDTAVYYCAAGQGAGVDYWGQGTQVTVSS | high polyreactivity
38 | QVQLVESGGGLVQAGGSLRLSCAASGNIFFVYDMGWYRQSPGKERELVAAISWSGGSTYADSVKGRFTISRDNAKNTVYLQMNSLKPEDTAVYYCNAQGYRYRIGYDYWGQGTQVTVSS | low polyreactivity
39 | QVQLVQSGGGLVQAGGSLRLSCAASGSTFARNAMGWYRQAPGKERELVAAISSSGGRTYYADSVKGRFTISRDHAKNSVYLQMNSLKPEYTEVYYCAAAFSLGMYWGQGTQGTVSS | high polyreactivity
40 | QVQLVESGGGLVQAGGSLRLSCAASARIFPVYAMGWYRQAPGKERELVAAISRSAGRTYYADSVKGRFTISRDNAKNTVYLQMNRLKPEDTAVYFCAAQSPYGYDYWGQGTQVTVSS | low polyreactivity
41 | QVQLVESGGGLVQAGGSLRLSCAASGRIFGNYAMGWYRQAPGKERELVAAISGGGSTYYADSVKGRFTISRDNAKNTVYLQMNSLKPEDTAVYYCAARFLWSVFGHKGGYWGQGTQVTVSS | low polyreactivity
42 | QVHLVESGGGLVQAGGSLGLSCAASGFTFTRNTMGWYRQAPGKERELVAAITRGGSTNYADSVKGRFTISRDNAKNTVYLQMNSLKPEDTAVYYCNKGRNVVLVRTADDYWGQGTQVTVSS | low polyreactivity
43 | QVQLVESGGGLVQAGGSLRLSCAASGSTFRRYTMGWYRQAPGKERELLAAISSGGSTYYADSVKGRFTISRDNAKNTVYLQMNSLNPEDTAVYYCAAKNYPLTRYWRYDYSEYYYWGQATQVTVSS | high polyreactivity
